Test results as given in IntAct's records for PubMed 35512704.

B1: Speckle-type POZ protein (Homo sapiens), O43791 (parent)
chain: MSRVPSPPPPAEMSSGPVAESWCYTQIKVVKFSYMWTINNFSFCREEMGEVIKSSTFSSGANDKLKWCLRVNPKGLDEESKDYLSLYLLLVSCPKSEVRAKFKFSILNAKGEETKAMESQRAYRFVQGKDWGFKKFIRRDFLLDEANGLLPDDKLTLFCEVSVVQDSVNISGQNTMNMVKVPECRLADELGGLWENSRFTDCCLCVAGQEFQAHKAILAARSPVFSAMFEHEMEESKKNRVEINDVEPEVFKEMMCFIYTGKAPNLDKMADDLLAAADKYALERLKVMCEDALCSNLSVENAAEILILADLHSADQLKTQAVDFINYHASDVLETSGWKSMVVSHPHLVAEAYRSLASAQCPFLGPPRKRLKQS
partner: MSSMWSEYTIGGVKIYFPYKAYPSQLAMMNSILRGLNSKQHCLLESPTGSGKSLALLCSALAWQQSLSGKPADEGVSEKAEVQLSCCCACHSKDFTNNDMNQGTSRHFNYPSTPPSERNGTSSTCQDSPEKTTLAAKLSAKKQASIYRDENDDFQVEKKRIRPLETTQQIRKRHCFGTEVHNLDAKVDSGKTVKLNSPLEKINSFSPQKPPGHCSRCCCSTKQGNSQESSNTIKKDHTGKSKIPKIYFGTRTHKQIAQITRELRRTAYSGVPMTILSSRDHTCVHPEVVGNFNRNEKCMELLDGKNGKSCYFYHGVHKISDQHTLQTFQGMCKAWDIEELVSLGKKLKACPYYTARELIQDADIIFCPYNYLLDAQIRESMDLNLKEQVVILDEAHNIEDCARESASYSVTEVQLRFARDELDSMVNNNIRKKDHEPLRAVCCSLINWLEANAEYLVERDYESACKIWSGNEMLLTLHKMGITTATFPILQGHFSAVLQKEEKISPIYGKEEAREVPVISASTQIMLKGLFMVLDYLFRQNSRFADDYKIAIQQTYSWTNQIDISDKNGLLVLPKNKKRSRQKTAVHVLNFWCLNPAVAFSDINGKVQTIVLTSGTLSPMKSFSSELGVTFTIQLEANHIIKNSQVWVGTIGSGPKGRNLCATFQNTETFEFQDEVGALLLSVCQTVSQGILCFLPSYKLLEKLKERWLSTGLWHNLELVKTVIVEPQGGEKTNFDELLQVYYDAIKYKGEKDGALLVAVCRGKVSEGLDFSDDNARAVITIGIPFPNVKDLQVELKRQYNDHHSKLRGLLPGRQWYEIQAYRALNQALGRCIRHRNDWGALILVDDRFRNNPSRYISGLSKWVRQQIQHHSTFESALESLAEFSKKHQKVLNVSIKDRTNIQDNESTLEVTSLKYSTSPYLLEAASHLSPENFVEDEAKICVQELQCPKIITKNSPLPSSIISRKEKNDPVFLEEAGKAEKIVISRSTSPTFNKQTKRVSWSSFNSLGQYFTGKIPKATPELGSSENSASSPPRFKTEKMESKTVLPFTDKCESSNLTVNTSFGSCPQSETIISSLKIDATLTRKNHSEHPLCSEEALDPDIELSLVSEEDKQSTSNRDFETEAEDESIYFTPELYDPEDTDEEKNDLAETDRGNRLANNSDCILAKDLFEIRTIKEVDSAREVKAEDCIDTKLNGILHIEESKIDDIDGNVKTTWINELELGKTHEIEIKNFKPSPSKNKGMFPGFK
B2: Speckle-type POZ protein (Homo sapiens), O43791 (parent)
chain: B1 chain
partner: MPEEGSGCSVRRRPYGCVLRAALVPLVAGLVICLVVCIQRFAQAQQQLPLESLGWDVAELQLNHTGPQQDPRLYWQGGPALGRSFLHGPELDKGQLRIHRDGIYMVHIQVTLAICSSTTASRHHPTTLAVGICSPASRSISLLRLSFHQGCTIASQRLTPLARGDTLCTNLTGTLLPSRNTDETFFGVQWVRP
B3: Speckle-type POZ protein (Homo sapiens), O43791 (parent)
chain: B1 chain
partner: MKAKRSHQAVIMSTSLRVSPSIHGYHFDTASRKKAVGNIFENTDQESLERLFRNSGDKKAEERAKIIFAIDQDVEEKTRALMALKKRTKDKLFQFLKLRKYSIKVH
B4: Mothers against decapentaplegic homolog 4 (Homo sapiens), Q13485 (parent)
chain: MDNMSITNTPTSNDACLSIVHSLMCHRQGGESETFAKRAIESLVKKLKEKKDELDSLITAITTNGAHPSKCVTIQRTLDGRLQVAGRKGFPHVIYARLWRWPDLHKNELKHVKYCQYAFDLKCDSVCVNPYHYERVVSPGIDLSGLTLQSNAPSSMMVKDEYVHDFEGQPSLSTEGHSIQTIQHPPSNRASTETYSTPALLAPSESNATSTANFPNIPVASTSQPASILGGSHSEGLLQIASGPQPGQQQNGFTGQPATYHHNSTTTWTGSRTAPYTPNLPHHQNGHLQHHPPMPPHPGHYWPVHNELAFQPPISNHPAPEYWCSIAYFEMDVQVGETFKVPSSCPIVTVDGYVDPSGGDRFCLGQLSNVHRTEAIERARLHIGKGVQLECKGEGDVWVRCLSDHAVFVQSYYLDREAGRAPGDAVHKIYPSAYIKVFDLRQCHRQMQQQAATAQAAAAAQAAAVAGNIPGPGSVGGIAPAISLSAAAGIGVDDLRRLCILRMSFVKGWGPDYPRQSIKETPCWIEIHLHRALQLLDEVLHTMPIADPQPLD
partner: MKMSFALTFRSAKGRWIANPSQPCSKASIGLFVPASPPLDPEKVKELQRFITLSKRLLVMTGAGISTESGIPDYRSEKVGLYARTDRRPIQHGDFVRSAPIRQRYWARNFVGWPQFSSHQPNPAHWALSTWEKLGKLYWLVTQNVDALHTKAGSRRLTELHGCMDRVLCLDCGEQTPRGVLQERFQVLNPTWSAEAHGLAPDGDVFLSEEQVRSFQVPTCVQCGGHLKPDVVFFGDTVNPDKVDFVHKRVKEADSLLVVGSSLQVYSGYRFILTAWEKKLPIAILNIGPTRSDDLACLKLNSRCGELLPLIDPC
B5: Speckle-type POZ protein (Homo sapiens), O43791 (parent)
chain: B1 chain
partner: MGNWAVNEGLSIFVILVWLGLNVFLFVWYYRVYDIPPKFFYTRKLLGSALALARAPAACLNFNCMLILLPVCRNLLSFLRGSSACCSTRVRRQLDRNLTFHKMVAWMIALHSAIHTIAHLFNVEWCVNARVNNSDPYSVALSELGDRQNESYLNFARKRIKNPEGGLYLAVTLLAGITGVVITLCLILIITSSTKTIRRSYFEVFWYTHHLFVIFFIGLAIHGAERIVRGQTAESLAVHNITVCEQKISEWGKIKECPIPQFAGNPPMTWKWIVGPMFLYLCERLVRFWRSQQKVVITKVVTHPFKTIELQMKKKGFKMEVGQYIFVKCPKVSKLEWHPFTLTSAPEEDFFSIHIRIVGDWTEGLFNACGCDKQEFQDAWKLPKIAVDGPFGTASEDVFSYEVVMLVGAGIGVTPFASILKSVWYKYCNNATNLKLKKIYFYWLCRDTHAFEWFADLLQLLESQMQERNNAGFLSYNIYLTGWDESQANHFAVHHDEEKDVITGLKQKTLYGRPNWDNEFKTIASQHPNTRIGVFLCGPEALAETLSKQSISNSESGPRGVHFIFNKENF
B6: Mothers against decapentaplegic homolog 4 (Homo sapiens), Q13485 (parent)
chain: B4 chain
partner: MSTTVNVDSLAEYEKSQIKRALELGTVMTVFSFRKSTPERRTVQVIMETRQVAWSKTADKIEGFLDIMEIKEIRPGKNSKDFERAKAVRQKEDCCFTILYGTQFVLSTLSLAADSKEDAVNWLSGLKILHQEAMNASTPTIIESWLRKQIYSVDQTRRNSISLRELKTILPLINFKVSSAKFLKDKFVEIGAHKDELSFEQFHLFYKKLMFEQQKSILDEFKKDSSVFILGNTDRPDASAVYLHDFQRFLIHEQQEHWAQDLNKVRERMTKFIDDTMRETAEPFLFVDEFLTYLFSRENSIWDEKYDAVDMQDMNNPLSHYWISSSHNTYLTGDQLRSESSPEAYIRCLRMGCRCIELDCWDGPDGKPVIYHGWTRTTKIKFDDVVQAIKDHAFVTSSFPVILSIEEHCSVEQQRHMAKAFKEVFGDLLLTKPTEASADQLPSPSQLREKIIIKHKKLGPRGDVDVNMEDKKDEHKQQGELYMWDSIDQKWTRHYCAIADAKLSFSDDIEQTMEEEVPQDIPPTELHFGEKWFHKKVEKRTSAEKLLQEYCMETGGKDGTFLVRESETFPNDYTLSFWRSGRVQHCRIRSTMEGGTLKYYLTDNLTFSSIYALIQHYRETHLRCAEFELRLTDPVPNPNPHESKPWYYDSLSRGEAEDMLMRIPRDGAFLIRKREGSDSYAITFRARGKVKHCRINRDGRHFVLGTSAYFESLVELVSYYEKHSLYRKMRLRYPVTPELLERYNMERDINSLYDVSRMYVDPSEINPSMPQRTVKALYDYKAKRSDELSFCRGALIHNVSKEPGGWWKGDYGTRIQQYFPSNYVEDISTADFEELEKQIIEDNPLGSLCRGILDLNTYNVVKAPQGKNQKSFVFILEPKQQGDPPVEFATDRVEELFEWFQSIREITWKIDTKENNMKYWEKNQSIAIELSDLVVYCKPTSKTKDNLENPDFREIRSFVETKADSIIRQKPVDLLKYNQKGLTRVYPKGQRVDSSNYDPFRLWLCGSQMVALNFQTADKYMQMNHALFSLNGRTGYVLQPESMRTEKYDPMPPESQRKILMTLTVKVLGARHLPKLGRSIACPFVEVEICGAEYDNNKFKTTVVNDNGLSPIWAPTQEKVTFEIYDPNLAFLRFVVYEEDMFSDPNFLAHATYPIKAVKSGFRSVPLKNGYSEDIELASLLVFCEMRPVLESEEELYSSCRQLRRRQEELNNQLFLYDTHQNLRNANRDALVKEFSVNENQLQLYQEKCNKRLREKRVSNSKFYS
B7: Speckle-type POZ protein (Homo sapiens), O43791 (parent)
chain: B1 chain
partner: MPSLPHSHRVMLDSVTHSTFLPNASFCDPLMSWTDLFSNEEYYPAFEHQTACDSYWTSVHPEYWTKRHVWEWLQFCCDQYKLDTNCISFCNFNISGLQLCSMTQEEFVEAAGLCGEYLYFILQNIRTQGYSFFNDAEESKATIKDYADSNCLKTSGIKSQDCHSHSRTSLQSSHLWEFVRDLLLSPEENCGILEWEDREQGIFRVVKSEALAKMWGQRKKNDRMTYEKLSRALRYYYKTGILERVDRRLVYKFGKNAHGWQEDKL
B8: Speckle-type POZ protein (Homo sapiens), O43791 (parent)
chain: B1 chain
partner: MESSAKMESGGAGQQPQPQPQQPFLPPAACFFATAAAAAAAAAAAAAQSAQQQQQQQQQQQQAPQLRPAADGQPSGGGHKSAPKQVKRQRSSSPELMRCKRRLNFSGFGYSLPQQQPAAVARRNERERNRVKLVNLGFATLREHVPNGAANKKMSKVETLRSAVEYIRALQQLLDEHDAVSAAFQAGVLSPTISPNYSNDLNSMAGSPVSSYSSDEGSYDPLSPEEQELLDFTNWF

Variants of: B1
Settings: with fancj_human BRIP1, Q9BX63

Variant	effect of a mutation on the interaction
Y87C	with no effect

Variants of: B2
Settings: with cd70_human CD70, P32970

Variant	effect of a mutation on the interaction
F133L	with no effect

Variants of: B2
Settings: with cd70_human CD70, P32970
Remark: another data set of the same source

Variant	effect of a mutation on the interaction
F133V	with no effect

Variants of: B2
Settings: with cd70_human CD70, P32970
Remark: another data set of the same source

Variant	effect of a mutation on the interaction
F102C	with no effect

Variants of: B2
Settings: with cd70_human CD70, P32970
Remark: another data set of the same source

Variant	effect of a mutation on the interaction
Y87C	with no effect

Variants of: B3
Settings: with tcim_human TCIM

Variant	effect of a mutation on the interaction
F102C	with no effect

Variants of: B3
Settings: with tcim_human TCIM
Remark: another data set of the same source

Variant	effect of a mutation on the interaction
Y87C	with no effect

Variants of: B3
Settings: with tcim_human TCIM
Remark: another data set of the same source

Variant	effect of a mutation on the interaction
F133V	with no effect

Variants of: B3
Settings: with tcim_human TCIM
Remark: another data set of the same source

Variant	effect of a mutation on the interaction
F133L	with no effect

Variants of: B4
Settings: with sir4_human SIRT4, Q9Y6E7

Variant	effect of a mutation on the interaction
G386D	with no effect

Variants of: B5
Settings: with cy24b_human CYBB

Variant	effect of a mutation on the interaction
F102C	with no effect

Variants of: B5
Settings: with cy24b_human CYBB
Remark: another data set of the same source

Variant	effect of a mutation on the interaction
Y87C	with no effect

Variants of: B5
Settings: with cy24b_human CYBB
Remark: another data set of the same source

Variant	effect of a mutation on the interaction
F133L	with no effect

Variants of: B5
Settings: with cy24b_human CYBB
Remark: another data set of the same source

Variant	effect of a mutation on the interaction
F133V	with no effect

Variants of: B6
Settings: with plcg2_human PLCG2, P16885

Variant	effect of a mutation on the interaction
R361C	with no effect

Variants of: B7
Settings: with elf5_human ELF5, Q9UKW6

Variant	effect of a mutation on the interaction
F102C	with no effect

Variants of: B7
Settings: with elf5_human ELF5, Q9UKW6
Remark: another data set of the same source

Variant	effect of a mutation on the interaction
F133V	with no effect

Variants of: B7
Settings: with elf5_human ELF5, Q9UKW6
Remark: another data set of the same source

Variant	effect of a mutation on the interaction
F133L	with no effect

Variants of: B7
Settings: with elf5_human ELF5, Q9UKW6
Remark: another data set of the same source

Variant	effect of a mutation on the interaction
Y87C	with no effect

Variants of: B8
Settings: with ascl1_human ASCL1, P50553

Variant	effect of a mutation on the interaction
F102C	with no effect

Variants of: B8
Settings: with ascl1_human ASCL1, P50553
Remark: another data set of the same source

Variant	effect of a mutation on the interaction
F133L	with no effect

Variants of: B8
Settings: with ascl1_human ASCL1, P50553
Remark: another data set of the same source

Variant	effect of a mutation on the interaction
F133V	with no effect

Variants of: B8
Settings: with ascl1_human ASCL1, P50553
Remark: another data set of the same source

Variant	effect of a mutation on the interaction
Y87C	with no effect
